Source: the nanobody polyreactivity screen of Harvey et al. (2022)

Test: yeast display, Sf9 membrane polyspecificity reagent, FACS + sequencing; frameworks hold sequencing errors
Summary of the method: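 A synthetic nanobody library was expressed on Saccharomyces cerevisiae BJ5465 by galactose induction for 36–48 hours. The library was stained for 1 hour at 4 °C with 10% biotinylated, detergent-solubilized Sf9 membrane reagent and enriched with streptavidin microbeads before FACS. Low and high (top ~1%) gates were set on anti-HA fluorescence for expression and streptavidin fluorescence for reagent binding, and each polyreactivity label reflects the gate of origin.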

Q: Which “polyreactivity (PSR sort gate)” value does the source give for “QVQLVESGGGLVQAGGSLRLSCAASGGIFSYAMGWSRQAPGKERELVADINSDGSTTYADSVKGRFTISRDNAKNTVYLQMNSLKPEDTAVYYCAVDVSVNWPLLERYEYWGQGTQVTVSS” here?
A: low polyreactivity

Q: For “QVQLVESGGGLVQAGGSLRLSCAASGITFGYNTMGWYRQAPGKERELVAAISGSGGRTYYADSLKGRFTISRDNSKNTVYLQMNSLKPEDTAVYYCAARWPIWSSLYDYWGQGTQVTVSS”, which “polyreactivity (PSR sort gate)” value is on record?
A: high polyreactivity

Q: For “QVELVESGGGLVQAGGSLRLSCAASGGTFYRYAMGWYRQAPGKEREFVASITQRGGRTYYADSVMGRFTISRDNAKNTVYLQMNSLIPEDTACYYCAAQGYKYWHGDGSDYWGQGSQVTVSS”, which “polyreactivity (PSR sort gate)” value is on record?
A: high polyreactivity

Q: With “QVQLVESGGGLVQAGGSLRLSCAASGRIFYFNAMGWYRQAPGKERELVAAISGSGGDTYYADSVKGRFTISRDNAKNTVYLQMNSLKPEDTAVYYCAAEVYTWGQGTQVTVSS” as the sequence, how does the “polyreactivity (PSR sort gate)” value read?
A: low polyreactivity

Q: With “QVQLVESGGGLVQAGGSLRLSCAASGSTFPYPYTMGWYRQAPGKERELVAVISRTGGSTFYADSVKGRFTISRDNAKNTVYLQMNSLKPEDTAVYYCAARYAVGAHYDYWGQGTQVTVSS” as the sequence, how does the “polyreactivity (PSR sort gate)” value read?
A: high polyreactivity

Q: For “QVQLVDSVGGLVQAGGSLRLSCAASGFIFGRNSMGWYIQAPGKERELVAGISSRGGRTYYADSVKGRFTISRDNAKNTVYLQMNSLKPEDTAVYYCAAAGLTDYVRYDYWGQGTQVTVSS”, which “polyreactivity (PSR sort gate)” value is on record?
A: high polyreactivity

Q: With “QVQLVESGGGLVQAGGSLRLSCAASGSTLWRYAMGWYRQAPGKERELVAGISRGGGSTYYADSVKGRFTISRDNANKTVYLQKNSLKPEDTAVYYCAADDPLYSISTGDYWGQGTQVTVSL” as the sequence, how does the “polyreactivity (PSR sort gate)” value read?
A: low polyreactivity

Q: For “QVQLQESGGGLVQAGGSLRPSCAASGNIFVPFKMGWYRMAPGKERELVASINRGSTTNYADSVKGRFTISRDNAKNTVYLQMISLKPEDTAVYYCAAIAYPDIPTYLDYDSDYFYWDQGTQVTVSS”, which “polyreactivity (PSR sort gate)” value is on record?
A: high polyreactivity

Q: For “QVQLVESGGGLVQAGGSLRLSCAASGSIFRGNSMGWYRQAPGKERELVAVITWSGGSTYYADSVKGRFTISRDNAKNTVYLQMNSLKPEDTAVYYCNAARKQRVYFAGDYWGQGTQVTVSS”, which “polyreactivity (PSR sort gate)” value is on record?
A: high polyreactivity

Q: For “QVQLVESGGGLVQAGGTLRLSCAASGSTFEYYAMGSYRQAPGKEREFVAAISSGPSTTYADSVKGRFTISRDNSKNTVYLQMNSLKPEDTAVYYCARRDGTTQALFGYDYWGQGTQVTVSS”, which “polyreactivity (PSR sort gate)” value is on record?
A: low polyreactivity

Q: With “QVQLVESGGGLVQAGGSLRLSCAASGRTFRYYAMGWYRQAPGKERELVAVITQSGGRTYYADSVKGRFTISRDNAKNTVYLQMNSLKPEDTAVYYCNAVFPGFFRSSPTYDYWGQGTQVTVSS” as the sequence, how does the “polyreactivity (PSR sort gate)” value read?
A: high polyreactivity

Q: Which “polyreactivity (PSR sort gate)” value does the source give for “QVQLVESGGGLDQAGGSLRLSCAPSGYTFNVYSMGWYRQAPGNESELVAGISSYGGSTYYADSVKGRFTISRDNAKNTVYIQMNSLKPEDTAVYYCAARSALYPKYESWGQGTQVTVSS” here?
A: low polyreactivity

Q: For “QVQLVESGGGLVQAGGSLRLSCAACGFSFWRNAMGRTRRAPGKDRELVAAISASGGSTYYADSVKGRFTISRDNATNTVFLQRNSLKPEDTAVYYCAADTQGFYRYDYWGQGTQVTVSS”, which “polyreactivity (PSR sort gate)” value is on record?
A: low polyreactivity

Q: For “QVQLVESGGGLVQAGGSLRLSCAASGRIFGYYAMGWYRQAPGKERELVATINSVGSTNYADSVKGRFTISRDNAKNTVYLQMNSLKPEDTAVYYCATDSAYTFFTYRLWRHGYWGQGTQVTVSS”, which “polyreactivity (PSR sort gate)” value is on record?
A: low polyreactivity

Q: For “QVQLVESGGGLVQAGGSLRLTCAASGLIFVAYAMGWYRQAPGKERELVAAISWSGGDTYYADSVKGRFTISRDNAKNTVYLQMNSLKPEDTAVYYCAADYYPYGYDSWGQGTQVTVSS”, which “polyreactivity (PSR sort gate)” value is on record?
A: low polyreactivity

Q: Which “polyreactivity (PSR sort gate)” value does the source give for “QVQLVESGGGLVQAGGSLRLSCAASGRILGQYVMGWYRQAPGKERELVASIRSGGVSTYYADSVKGRFTISRDNAKNTVYLQMNSLKPEDTAVYYCAKGSPGPRRYKFDYWGQGTQVTVSS” here?
A: low polyreactivity

Q: Which “polyreactivity (PSR sort gate)” value does the source give for “QVQLVESGGGLVQAGGSLRLSCAPSGSIFYVNAMGWYRQAPGKERELVAAITYDTGRTYYADSVKGRFTISRDNAKNTVYLQKNSLKPEDTAVYYCAVRPGYYWGYWPRFGYWGQGTQVTVSS” here?
A: low polyreactivity

Q: For “QVQLVESGGGLVQAGGSLRLSCAASGITFSDYAMGWYRQAPGKEWELVAAISARGGSTYYADSVKGRFTISRDNAKNTVYLQMNSLKPEDTAVYYCAADKRTPYYSRAGMDYWGQGTQVTVSS”, which “polyreactivity (PSR sort gate)” value is on record?
A: low polyreactivity

Q: Which “polyreactivity (PSR sort gate)” value does the source give for “QFQLVDSGGGLVQAGGSLRLSCAATGSTQPGYAMGWYRQAPGKERELVAAITSRGGTTYYADSVKGRFTISCDNAKNTVYLQMNSLKPEDTAVYYCAPYTSYASDYWGQGTQVTVSS” here?
A: high polyreactivity

Q: For “QVQLVESGGGLVQAGGSLRLSCAASGSTFDYYAMGWYRQAPGKERELVAAISSSGSSTYYADSVKGLFTISRDNAKNTVYLQMNSLKPEDTAVYYCAKGTNYRDDYWGQGTQVTVSS”, which “polyreactivity (PSR sort gate)” value is on record?
A: low polyreactivity

Q: With “QVQLVESGGGLVQAGGSLRLSCAASGRTFGTNAMGWYRQAPGKERELVASIDLSADSTYYADSVKGRFTISRDNAKNTVYLQMNSLKPEDTAVYYCNKDGYPWPPNLDYWGQGTQVTVSS” as the sequence, how does the “polyreactivity (PSR sort gate)” value read?
A: low polyreactivity

Q: Which “polyreactivity (PSR sort gate)” value does the source give for “QVQLVESGGGLVQAGGSLRLSCAASGRIRNAMGWYRQAPGKERELVAGITWSGGRTYYADSVKGRFTISRDNAKYTVYLQMNSLKPEDTAVYYCAAATPYRYNYWGQGTQVTVSS” here?
A: high polyreactivity

Q: Which “polyreactivity (PSR sort gate)” value does the source give for “QVQLEESGGGLVQAGGSLRLSCAASGRIFGVNAMGWYRQAPGKERELVAAIRYSGGSTYYADSVKGRFTISRDNAKNTVYLQMNSLKPEDTAVYYCARDVWNYWDGVFQYYSYDFDYWGQGTQVTVSS” here?
A: low polyreactivity

Q: With “QVQLVESGGGLVQAGGSLRLSCAASGSTLPANSMGWYRQAPGKERELVAAITITTDGSTYYADSVKGRFTISRDNAKNTVYLQMNSLKPEDTAVYYCAVARYRYHIRKMGYWGQGTQVTVSS” as the sequence, how does the “polyreactivity (PSR sort gate)” value read?
A: low polyreactivity

Q: For “QVQLVESGGGLVQAGGSLRLSCAASGITITTYAMGWYRQAPGKERELVAAISSASSTYYADSVKGRFTISRDNAKNTVYLQMNSLKPEDTAVYYCAARVFKKYRPSGRYYYWGQGTQVTVSS”, which “polyreactivity (PSR sort gate)” value is on record?
A: high polyreactivity

Q: With “QVHLVESGGGLVQAGGSLRLSCAPSGLTFPYNAMGWYRQAPGKESELVAAISRGGGTNYADSVKGRFTISRDNAKNTVYLQMNSLKPEDTAVYYCAAEYATWWGGYDYSGQGTQVTVSS” as the sequence, how does the “polyreactivity (PSR sort gate)” value read?
A: low polyreactivity

Q: With “QVQLVESGGGLVQAGGSLRLSCAASGYTFWHYAMGWYRQAPGKEREFVATISSGGSTYYADSVKGRFTISRDNAMNTVYLQMNSLKPEDTAVYYCAADVDYIGPIYDYWGQGTQVTVSS” as the sequence, how does the “polyreactivity (PSR sort gate)” value read?
A: low polyreactivity

Q: Which “polyreactivity (PSR sort gate)” value does the source give for “QVQLVESGGGLVHAGGSLRLSCAASGSIFEGYAMGWSRQAPGKERELVAAISRSGGSTYYADSVKGRFTISRDNAKNSVYLQINRLTPEATAVYYCAARKAIDYQGRHDHWGQGTQVTVSS” here?
A: low polyreactivity

Q: For “QVQLVESGGGLVQAGGSLRLSCAASGRIFYYNAMGWYRQAPGKERELVAAIRGGGSTNYADSVKGRFTISRDNAKNTVYLQMNSLKPEDTAVYYCAAPWTQILDYWGQGTQVTVSS”, which “polyreactivity (PSR sort gate)” value is on record?
A: low polyreactivity

Q: With “QVQLVESGGGLVQAGGSLRLSCAASGRIFRVYAMGWYRQAPGKERELVAAISYSGGSTYYADSVKGRFTISRDNAKNTVYLQMNSLKPEDTAVYYCAAIRRSSKESKGTNPYEYWGQGTQVTVSS” as the sequence, how does the “polyreactivity (PSR sort gate)” value read?
A: high polyreactivity

Q: For “QVQLVESGGGLVQAGGSLRLSCAASGRIFYIYAMGWYRQAPGKERELVASITSSGTSTYADSVKGRFTISRDNAKNTVYLQMNSLKPEDTAVYYCNARGYPKSWRYSRGYEYWGQGTQVTVSS”, which “polyreactivity (PSR sort gate)” value is on record?
A: low polyreactivity

Q: With “QVQLVESGGGLVQAGGSLRLSCAASGSTFSLYGMGWYRQAPGKERELVAAIRRSGGRTYYADSVKGRFTISRDNAKNTVYLQMNSLKPEDTAVYYCAKSVPRYYSKSGLAYEFDYWGQGTQVTVSS” as the sequence, how does the “polyreactivity (PSR sort gate)” value read?
A: low polyreactivity

Q: With “QVQLVESGRGLVLAGGSLRLSCAASGFIFSYNAMGSYRLAPGKERELVAAISSSGGTTYYADSVKGRFTISRDNAKNTVYLQMNSLKPEDTAVYYCAADGRTYHHHDCGWYRYDYWGQGSQVTVSS” as the sequence, how does the “polyreactivity (PSR sort gate)” value read?
A: low polyreactivity

Q: With “QVQLVESGGGLVQAGGSLRLSCAASGRIFGSYAMGWYRQAPGKERELVAAISWRGTSTYYADSVKGRFTISRDNAKNTVYLQMNSLIPEDTAVYYCAARGLWPYDYWGQGSQVTVSS” as the sequence, how does the “polyreactivity (PSR sort gate)” value read?
A: low polyreactivity

Q: Which “polyreactivity (PSR sort gate)” value does the source give for “QVQLVESGGGLVQAGGSLRLSCAASGSTFAWYAMGWYRTAPGKERELVAAISRTGRTYYADSVKGRFTMSRDNAKNTVYLQMNSLKPEDTAVYYCAARIERFYRDQRYDYWGQGTQVTVSS” here?
A: high polyreactivity

Q: For “QVQLVESGGGLVQAGGSLRLSCAASGGIFGANSMGWYRQAPGKERELVATITRGGSTNYADSVKGRFTISRDNAKNTVYLQMNSLKTEDTAVYYCAARFYSRAFWPAYYYWGQGTQVTVSS”, which “polyreactivity (PSR sort gate)” value is on record?
A: high polyreactivity

Q: For “QDQLVESAGGLVQAGGSLRLSCAASGRIFSRYAMGWYRQAPGKERELVAAITQSGTSTYYADSVKGRFTISRDIAKNTVYLQMNSLKAEDTAVYYCNAYSQYRYDYWGQGTQVTVSS”, which “polyreactivity (PSR sort gate)” value is on record?
A: low polyreactivity

Q: With “QVQLVESGGGLVQAGRSLRLSCAASGITFPVYPMGWYRQAPGKERELVATITSSGGRTYYADSVKGRFTISRDNAKNTVYLQMNSLKPEDSAVYYCAAANGKGQGGYDYWGHGTQVTVSS” as the sequence, how does the “polyreactivity (PSR sort gate)” value read?
A: high polyreactivity

Q: With “QVQLVESGGGLVQAGGSLRLSCAASGRTLYHNAMGWYRQAPGKERELVAAISYRGTRTYYADSVKGRFTISRDKAKNTVYLQKNSLTPEDTAVYYCAADTTYATKSDYWGQGTQVTVSS” as the sequence, how does the “polyreactivity (PSR sort gate)” value read?
A: high polyreactivity

Q: Which “polyreactivity (PSR sort gate)” value does the source give for “QVQLVESGGGLVQAGGSLRLICAASVTTFPYYAMGWYRQAPGKERELVAAITSSGGSTYYADSVKGRFTISRDNAKNTVYLQMNSLIPEDTAVYYCAKGYGPYRQMNYWGQGTQVTVSS” here?
A: low polyreactivity

Q: For “QVQLVESGGGLVQAGGSLRLSCAASGSIFPFYAMGWYRQAPGKERELVAAINYSAGSTYYADSVKGRFTISRDNAKYTVYLQMNSLKPEDTAVYYCAKEVSAYEMDYWGQGTQVTVSS”, which “polyreactivity (PSR sort gate)” value is on record?
A: low polyreactivity
